Where no end group is shown, it is not given here. fluorescein = fluorescein label attached at the C-terminus
Legend:
… peptide = conditions: cited from earlier work
[1] = molecular target: human N-His6-mortalin (Δ1-51) (human, UniProt P38646 52-679); assay: fluorescence polarisation
Chain of human N-His6-mortalin (Δ1-51) (P38646 52-679, stated change not applied): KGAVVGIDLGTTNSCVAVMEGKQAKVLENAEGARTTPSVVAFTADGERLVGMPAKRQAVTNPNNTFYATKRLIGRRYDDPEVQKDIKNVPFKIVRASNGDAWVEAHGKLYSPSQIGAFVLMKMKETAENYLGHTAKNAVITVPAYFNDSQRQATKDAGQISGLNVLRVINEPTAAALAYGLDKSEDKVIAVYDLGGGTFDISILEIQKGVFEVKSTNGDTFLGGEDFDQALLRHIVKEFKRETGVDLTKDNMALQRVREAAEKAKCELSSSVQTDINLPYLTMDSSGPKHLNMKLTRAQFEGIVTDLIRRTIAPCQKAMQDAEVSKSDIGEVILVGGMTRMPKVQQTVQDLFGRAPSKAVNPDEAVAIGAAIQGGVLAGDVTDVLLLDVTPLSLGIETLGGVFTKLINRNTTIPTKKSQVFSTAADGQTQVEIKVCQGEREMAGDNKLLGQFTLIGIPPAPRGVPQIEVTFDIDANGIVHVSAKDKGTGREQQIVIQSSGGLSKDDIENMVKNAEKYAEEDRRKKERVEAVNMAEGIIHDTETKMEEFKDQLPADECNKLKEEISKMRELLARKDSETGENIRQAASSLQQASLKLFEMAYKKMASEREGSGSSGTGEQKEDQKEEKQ

Chain of Ssq1 (Q05931 2-657): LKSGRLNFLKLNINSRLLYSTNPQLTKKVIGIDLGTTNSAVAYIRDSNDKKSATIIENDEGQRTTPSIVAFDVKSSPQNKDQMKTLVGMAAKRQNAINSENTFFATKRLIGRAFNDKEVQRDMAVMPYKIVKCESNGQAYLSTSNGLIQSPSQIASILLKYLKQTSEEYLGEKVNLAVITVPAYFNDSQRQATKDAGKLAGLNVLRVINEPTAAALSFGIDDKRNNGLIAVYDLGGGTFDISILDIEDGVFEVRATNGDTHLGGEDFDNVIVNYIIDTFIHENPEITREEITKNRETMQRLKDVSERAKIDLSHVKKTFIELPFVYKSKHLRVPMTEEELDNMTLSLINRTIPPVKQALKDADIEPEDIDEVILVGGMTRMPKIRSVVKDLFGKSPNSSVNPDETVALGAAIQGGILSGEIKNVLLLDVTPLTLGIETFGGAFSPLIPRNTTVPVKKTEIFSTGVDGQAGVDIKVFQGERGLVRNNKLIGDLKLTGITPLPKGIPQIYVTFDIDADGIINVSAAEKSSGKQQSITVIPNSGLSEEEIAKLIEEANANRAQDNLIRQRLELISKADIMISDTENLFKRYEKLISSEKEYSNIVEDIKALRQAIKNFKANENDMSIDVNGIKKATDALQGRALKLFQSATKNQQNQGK

| Molecule | Kd (… peptide) | Kd [1] |
| --- | --- | --- |
| Ssq1 (from UniProt Q05931) | 2800 nM | – |
| LSLPPVKLHK-fluorescein [LSLPPVKLHK-fluorescein] | – | 1200 ± 100 nM |
